According to the supplement of paper PMC7877785:
± gives the uncertainty stated by the source.

Assay: self-splicing fitness, log relative to wild type (ln ratio); higher = more splicing; Tetrahymena group I intron in knt gene, E. coli kanamycin selection, DiMSum; sequences stand for … in CUCUCU…GGAGGGAAAAGUUAUCAGGCAUGCACCUGGUAGCUAGUCUUUAAACCAAUAGAUUGCAUCGGUUUAAAAGGCAAGACCGUCAAAUUGCGGGAAAGGGGUCAACAGCCGUUCAGUACCAAGUCUCAGGGGAAACUUUGAGAUGGCCUUGCAAAGGGUAUGGUAAUAAGCUGACGGACAUGGUCCUAACCACGCAGCCAAGUCCUAAGUCAACAGAUCUUCUGUUGAUAUGGAUGCAGUUCACAGACUAAAUGUCGGUCGGGGAAGAUGUAUUCUUCUCAUAAGAUAUAGUCGGACCUCUCCUUAAUGGGAGCUAGCGGAUGAAGUGAUGCAACACUGGAGCCGCUGGGAACUAAUUUGUAUGCGAAAGUAUAUUGAUUAGUUUUGGAGUACUCGUGGUCG
Method in brief: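 DiMSum derived fitness as the error-weighted combination of fold changes across replicates, kanamycin versus no kanamycin, normalised to wild type. E. coli BL21(DE3) held the library, which randomised all eight P1ex-region intron nucleotides within the knt kanamycin-resistance gene on pET-22b(+). Six replicate transformations grew overnight at 37°C or 30°C on LB agar with or without 25 μg/mL kanamycin, also containing 100 μg/mL carbenicillin, 50 μM IPTG and 0.2% rhamnose, and pooled colonies were amplicon-sequenced on an Illumina HiSeq 2500.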

Row | Sequence | self-splicing fitness (ln) (30 °C) | self-splicing fitness (ln) (37 °C)
1 | CCCCAGCAAUAUUACGAUAU | -3.52 ± 0.2 | -1.58 ± 0.21
2 | CCCCAGCAAUAUUACGAUUA | -3.4 ± 0.2 | -2.87 ± 0.22
3 | CCCCAGCAAUAUUACGCACG | -2.64 ± 0.11 | -2.2 ± 0.17
4 | CCCCAGCAAUAUUACGCGCC | -3.19 ± 0.19 | -3.17 ± 0.47
5 | CCCCAGCAAUAUUACGCGCU | -3.31 ± 0.12 | -2.45 ± 0.21
6 | CCCCAGCAAUAUUACGCGGG | -4.19 ± 0.18 | -3.1 ± 0.23
7 | CCCCAGCAAUAUUACGCUAA | -3.55 ± 0.18 | -3.2 ± 0.21
8 | CCCCAGCAAUAUUACGCUGA | -3.97 ± 0.2 | -2.42 ± 0.17
9 | CCCCAGCAAUAUUACGGAAA | -4.13 ± 0.34 | -1.64 ± 0.16
10 | CCCCAGCAAUAUUACGGAGC | -3.08 ± 0.15 | -2.83 ± 0.23
11 | CCCCAGCAAUAUUACGGAUG | -1.96 ± 0.064 | -1.08 ± 0.067
12 | CCCCAGCAAUAUUACGGCGC | -3.41 ± 0.17 | -2.98 ± 0.24
13 | CCCCAGCAAUAUUACGGCUC | -3.43 ± 0.18 | -2.75 ± 0.33
14 | CCCCAGCAAUAUUACGGGAA | -2.29 ± 0.096 | -1.64 ± 0.088
15 | CCCCAGCAAUAUUACGGGAU | -3.28 ± 0.12 | -2.48 ± 0.14
16 | CCCCAGCAAUAUUACGUAGG | -3.78 ± 0.12 | -2.68 ± 0.15
17 | CCCCAGCAAUAUUACGUGAC | -2.7 ± 0.11 | -3.24 ± 0.21
18 | CCCCAGCAAUAUUACGUGAU | -3.64 ± 0.11 | -2.96 ± 0.18
19 | CCCCAGCAAUAUUACGUGGU | -2.64 ± 0.1 | -2.98 ± 0.2
20 | CCCGAGCAAUAUUACGACCC |  | -0.219 ± 0.47
21 | CCCGAGCAAUAUUACGAGAA | -3.69 ± 0.43 | -2.1 ± 0.34
22 | CCCGAGCAAUAUUACGAGCU | -3.75 ± 0.17 | -2.69 ± 0.21
23 | CCCGAGCAAUAUUACGAUCU | -3.09 ± 0.19 | -2.68 ± 0.23
24 | CCCGAGCAAUAUUACGCACA | -2.87 ± 0.27 | -1.68 ± 0.32
25 | CCCGAGCAAUAUUACGCCAU | -3.53 ± 0.35 | -2.44 ± 0.33

Row | Sequence | self-splicing fitness (ln) (30 °C) | self-splicing fitness (ln) (37 °C)
26 | CCCGAGCAAUAUUACGCCGU | -3.61 ± 0.32 | -2.69 ± 0.32
27 | CCCGAGCAAUAUUACGCGAA |  | -3.31 ± 0.21
28 | CCCGAGCAAUAUUACGCGAG | -5.08 ± 0.41 | -2.46 ± 0.18
29 | CCCGAGCAAUAUUACGCGGG | -3.54 ± 0.17 | -3.45 ± 0.3
30 | CCCGAGCAAUAUUACGGAGA | -3.28 ± 0.14 | -1.36 ± 0.11
31 | CCCGAGCAAUAUUACGGCGU | -2.83 ± 0.13 | -1.71 ± 0.13
32 | CCCGAGCAAUAUUACGGGGA | -3.49 ± 0.21 | -2.14 ± 0.11
33 | CCCGAGCAAUAUUACGGGUG | -3.42 ± 0.18 | -1.7 ± 0.12
34 | CCCGAGCAAUAUUACGGUUU | -3.14 ± 0.11 | -1.96 ± 0.12
35 | CCCGAGCAAUAUUACGUAAA | -3.27 ± 0.15 | -2.94 ± 0.2
36 | CCCGAGCAAUAUUACGUAGA | -3.94 ± 0.3 | -2.92 ± 0.24
37 | CCCGAGCAAUAUUACGUGCU | -3.55 ± 0.21 | -1.32 ± 0.16
38 | CCCGAGCAAUAUUACGUGGC |  | -3.58 ± 0.25
39 | CCCGAGCAAUAUUACGUGGG | -3.97 ± 0.19 | -2.79 ± 0.19
40 | CCCUAGCAAUAUUACGAAGA | -2.34 ± 0.21 | -2.67 ± 0.26
41 | CCCUAGCAAUAUUACGAGAA | -2.85 ± 0.45 | -2.67 ± 0.44
42 | CCCUAGCAAUAUUACGAGAC | -3.85 ± 0.22 | -2.69 ± 0.34
43 | CCCUAGCAAUAUUACGAGCA | -2.64 ± 0.21 | -3.08 ± 0.18
44 | CCCUAGCAAUAUUACGCACA | -2.5 ± 0.14 | -1.97 ± 0.15
45 | CCCUAGCAAUAUUACGCCCC | -3.88 ± 0.37 | -3.05 ± 0.47
46 | CCCUAGCAAUAUUACGCCCG | -3.81 ± 0.37 | -2.12 ± 0.37
47 | CCCUAGCAAUAUUACGCGGA | -1.29 ± 0.12 | -0.827 ± 0.1
48 | CCCUAGCAAUAUUACGCUCU | -4.04 ± 0.28 | -1.45 ± 0.2
49 | CCCUAGCAAUAUUACGGAAC | -4.39 ± 0.43 | -2.85 ± 0.4
